± gives the standard deviation of the averaged measurements.
Assay: total protein half-life in vivo (active degradation + dilution); higher = more stable protein
[1] = E. coli NCM3722 delta-clpP delta-lon delta-hslV, growth: N-lim chemostat, doubling time 6 h
[2] = E. coli NCM3722 delta-hslV, growth: N-lim chemostat, doubling time 6 h
[3] = E. coli NCM3722 delta-lon, growth: N-lim chemostat, doubling time 6 h
[4] = E. coli NCM3722 delta-smpB, growth: N-lim chemostat, doubling time 6 h
[5] = wild type E. coli NCM3722, growth: C-lim chemostat, doubling time 6 h
[6] = wild type E. coli NCM3722, growth: C-lim chemostat, doubling time 12 h
[7] = wild type E. coli NCM3722, growth: N-lim chemostat, doubling time 6 h
[8] = wild type E. coli NCM3722, growth: N-lim chemostat, doubling time 12 h
[9] = wild type E. coli NCM3722, growth: P-lim chemostat, doubling time 6 h
[10] = E. coli NCM3722 delta-clpP, growth: N-lim chemostat, doubling time 6 h
[11] = wild type E. coli NCM3722, growth: C-lim chemostat, doubling time 3 h
[12] = wild type E. coli NCM3722, growth: P-lim chemostat, doubling time 12 h

Row | Sequence | total protein half-life in vivo [1] [h] | total protein half-life in vivo [2] [h] | total protein half-life in vivo [3] [h] | total protein half-life in vivo [4] [h] | total protein half-life in vivo [5] [h] | total protein half-life in vivo [6] [h] | total protein half-life in vivo [7] [h] | total protein half-life in vivo [8] [h] | total protein half-life in vivo [9] [h] | total protein half-life in vivo [10] [h] | total protein half-life in vivo [11] [h] | total protein half-life in vivo [12] [h]
1 | MFGKLSLDAVPFHEPIVMVTIAGIILGGLALVGLITYFGKWTYLWKEWLTSVDHKRLGIMYIIVAIVMLLRGFADAIMMRSQQALASAGEAGFLPPHHYDQIFTAHGVIMIFFVAMPFVIGLMNLVVPLQIGARDVAFPFLNNLSFWFTVVGVILVNVSLGVGEFAQTGWLAYPPLSGIEYSPGVGVDYWIWSLQLSGIGTTLTGINFFVTILKMRAPGMTMFKMPVFTWASLCANVLIIASFPILTVTVALLTLDRYLGTHFFTNDMGGNMMMYINLIWAWGHPEVYILILPVFGVFSEIAATFSRKRLFGYTSLVWATVCITVLSFIVWLHHFFTMGAGANVNAFFGITTMIIAIPTGVKIFNWLFTMYQGRIVFHSAMLWTIGFIVTFSVGGMTGVLLAVPGADFVLHNSLFLIAHFHNVIIGGVVFGCFAGMTYWWPKAFGFKLNETWGKRAFWFWIIGFFVAFMPLYALGFMGMTRRLSQQIDPQFHTMLMIAASGAVLIALGILCLVIQMYVSIRDRDQNRDLTGDPWGGRTLEWATSSPPPFYNFAVVPHVHERDAFWEMKEKGEAYKKPDHYEEIHMPKNSGAGIVIAAFSTIFGFAMIWHIWWLAIVGFAGMIITWIVKSFDEDVDYYVPVAEIEKLENQHFDEITKAGLKNGN [P0ABI8] | 6.54 ± 0.5 | 6.89 ± 0.66 | 6.02 ± 0.071 | 6.54 ± 0.66 | 5.86 ± 0.97 | 14.5 ± 0.29 | 5.84 ± 0.49 | 11.9 ± 0.69 | 6.04 ± 0.13 |  |  | 
2 | MCEHHHAAKHILCSQCDMLVALPRLEHGQKAACPRCGTTLTVAWDAPRQRPTAYALAALFMLLLSNLFPFVNMNVAGVTSEITLLEIPGVLFSEDYASLGTFFLLFVQLVPAFCLITILLLVNRAELPVRLKEQLARVLFQLKTWGMAEIFLAGVLVSFVKLMAYGSIGVGSSFLPWCLFCVLQLRAFQCVDRRWLWDDIAPMPELRQPLKPGVTGIRQGLRSCSCCTAILPADEPVCPRCSTKGYVRRRNSLQWTLALLVTSIMLYLPANILPIMVTDLLGSKMPSTILAGVILLWSEGSYPVAAVIFLASIMVPTLKMIAIAWLCWDAKGHGKRDSERMHLIYEVVEFVGRWSMIDVFVIAVLSALVRMGGLMSIYPAMGALMFALVVIMTMFSAMTFDPRLSWDRQPESEHEES [P0AFL9] |  |  |  |  |  |  |  | 11 |  |  |  | 
3 | MKAAAKTQKPKRQEEHANFISWRFALLCGCILLALAFLLGRVAWLQVISPDMLVKEGDMRSLRVQQVSTSRGMITDRSGRPLAVSVPVKAIWADPKEVHDAGGISVGDRWKALANALNIPLDQLSARINANPKGRFIYLARQVNPDMADYIKKLKLPGIHLREESRRYYPSGEVTAHLIGFTNVDSQGIEGVEKSFDKWLTGQPGERIVRKDRYGRVIEDISSTDSQAAHNLALSIDERLQALVYRELNNAVAFNKAESGSAVLVDVNTGEVLAMANSPSYNPNNLSGTPKEAMRNRTITDVFEPGSTVKPMVVMTALQRGVVRENSVLNTIPYRINGHEIKDVARYSELTLTGVLQKSSNVGVSKLALAMPSSALVDTYSRFGLGKATNLGLVGERSGLYPQKQRWSDIERATFSFGYGLMVTPLQLARVYATIGSYGIYRPLSITKVDPPVPGERVFPESIVRTVVHMMESVALPGGGGVKAAIKGYRIAIKTGTAKKVGPDGRYINKYIAYTAGVAPASQPRFALVVVINDPQAGKYYGGAVSAPVFGAIMGGVLRTMNIEPDALTTGDKNEFVINQGEGTGGRS [P0AD68] | 2.8 ± 0.043 | 2.53 ± 0.39 | 2.31 ± 0.099 | 2.77 ± 0.059 | 2.35 ± 0.13 | 2.75 ± 0.35 | 2.61 ± 0.035 | 3.15 ± 0.18 | 3.311 ± 0.027 | 2.39 ± 0.032 | 1.75 ± 0.11 | 4.83 ± 0.71
4 | MTVRVAINGFGRIGRNVVRALYESGRRAEITVVAINELADAAGMAHLLKYDTSHGRFAWEVRQERDQLFVGDDAIRVLHERSLQSLPWRELGVDVVLDCTGVYGSREHGEAHIAAGAKKVLFSHPGSNDLDATVVYGVNQDQLRAEHRIVSNASCTTNCIIPVIKLLDDAYGIESGTVTTIHSAMHDQQVIDAYHPDLRRTRAASQSIIPVDTKLAAGITRFFPQFNDRFEAIAVRVPTINVTAIDLSVTVKKPVKANEVNLLLQKAAQGAFHGIVDYTELPLVSVDFNHDPHSAIVDGTQTRVSGAHLIKTLVWCDNEWGFANRMLDTTLAMATVAFR [P0A9B6] | 4.55 ± 0.44 | 4.07 ± 1.2 | 4.77 ± 1.6 | 3.65 ± 0.18 | 5.08 ± 0.25 | 8.49 ± 0.63 | 3.49 ± 0.19 | 5.94 ± 0.99 | 5.48 ± 0.15 | 5.54 ± 2.7 | 2.85 ± 0.086 | 10 ± 0.75
5 | MPLLKLWAGSLVMLAAVSLPLQAASPVKVGSKIDTEGALLGNIILQVLESHGVPTVNKVQLGTTPVVRGAITSGELDIYPEYTGNGAFFFKDENDAAWKNAQQGYEKVKKLDSEHNKLIWLTPAPANNTWTIAVRQDVAEKNKLTSLADLSRYLQEGGTFKLAASAEFIERADALPAFEKAYGFKLGQDQLLSLAGGDTAVTIKAAAQQTSGVNAAMAYGTDGPVAALGLQTLSDPQGVQPIYAPAPVVRESVLREYPQMAQWLQPVFASLDAKTLQQLNASIAVEGLDAKKVAADYLKQKGWTK | 4.32 ± 0.22 | 6.28 ± 0.2 | 7.16 ± 0.13 | 5.47 ± 0.21 | 5.7 ± 0.057 | 9.88 ± 1.8 | 5.95 ± 0.34 | 12 ± 0.96 | 6.08 ± 0.75 | 5 ± 0.74 | 3.08 ± 0.17 | 12 ± 0.14
6 | MSGARLHTLLPELTTRQSVMVVGAAVIDVIADAYALPWRGCDIELKQQSVNVGGCALNIAVALKRLGIEAGNALPLGQGVWAEMIRNRMAKEGLISLIDNAEGDNGWCLALVEPDGERTFMSFSGVENQWNRQWLARLTVAPGSLLYFSGYQLASPCGELLVEWLEELQDVTPFIDFGPRIGDIPDALLARIMACRPLVSLNRQEAEIAAERFALSAEITTLGKQWQEKFAAPLIVRLDKEGAWYFSNDASGCIPAFPTQVVDTIGAGDSHAGGVLAGLASGLPLADAVLLGNAVASWVVGHRGGDCAPTREELLLAHKNV | 4.46 ± 0.92 |  |  | 3.76 ± 0.33 | 4.79 ± 0.53 | 6.71 ± 3.7 | 3.67 ± 0.096 | 6.33 ± 1.1 | 4.76 ± 0.76 | 3.62 ± 0.076 | 3.02 ± 0.012 | 11.1 ± 2.4
